Data published in patent US20200002431A1 (Seagen, published 2020).

T1: human BCMA (B-cell maturation antigen, CD269) expressed on cells (human, UniProt Q02223 1-184)
T1 construct: Endogenous on myeloma lines (NCI-H929, U266, JJN3) or a full-length clone transfected into HEK 293 cells; also called hBCMA; BCMA expressed on NCI-H929 cells
T1 sequence: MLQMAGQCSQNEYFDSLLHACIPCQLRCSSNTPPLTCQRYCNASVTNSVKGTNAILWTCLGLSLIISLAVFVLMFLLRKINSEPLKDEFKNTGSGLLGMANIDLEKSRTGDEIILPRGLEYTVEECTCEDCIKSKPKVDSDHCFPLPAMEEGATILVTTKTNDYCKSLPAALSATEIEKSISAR


Each binder was assayed against T1, human BCMA (B-cell maturation antigen, …) (assay: cell binding, NCI-H929 cells expressing BCMA, 3-pt assay).
Method: The six humanized heavy chains and four humanized light chains were tested in all 24 possible permutations for binding to BCMA expressed on NCI-H929 cells, which express about 50,000 molecules of BCMA per cell.

Binder	binding result
hSG16.17 vH1 vK3 (antibody, V domains shown, also called hSG16.17 2) VH: QVQLVQSRAEVKKPGASVKLSCKASGYTFTDYYIHWVRQAPGQGLEWIGYINPNSGYTKYNENFKTRATMTADKSINTAYVELSRLRSDDTAVYFCTRYMWERVTGFFDFWGQGTMVTVSS VL: DIQMTQSPSSVSASVGDRVTITCRASEDISDDLAWYQQKPGKAPKVLVYTTSSLQSGVPSRFSGSGSGTDFTLTISSLQPEDFATYFCQQTYKFPPTFGGGTKVEIKR	binds
hSG16.17 vH5 vK4 (antibody, V domains shown, also called hSG16.17 19) VH: QVQLVQSGAEVKKPGASVKVSCKASGYTFTDYYIHWVRQAPGQGLEWIGYINPNSGYTKYNENFKTRATMTADKSTNTAYVELSSLRSEDTAVYFCTRYMWERVTGFFDFWGQGTMVTVSS VL: DIQMTQSPSSVSASVGDRVTITCLASEDISDDLAWYQQKPGKAPKVLVYTTSRLQSGVPSRFSGSGSGTDFTLTISSMQPEDFADYFCQQTYKFPPTFGGGTKVEIKR	binds
hSG16.17 vH3 vK3 (antibody, V domains shown, also called hSG16.17 10) VH: QVQLVQSGAEVKKPGASVKLSCKASGYTFTDYYIHWVRQAPGQGLEWIGYINPNSGYTNYAQKFQGRATMTADKSINTAYVELSRLRSDDTAVYFCTRYMWERVTGFFDFWGQGTMVTVSS VL: DIQMTQSPSSVSASVGDRVTITCRASEDISDDLAWYQQKPGKAPKVLVYTTSSLQSGVPSRFSGSGSGTDFTLTISSLQPEDFATYFCQQTYKFPPTFGGGTKVEIKR	binds
hSG16.17 vH6 vK4 (antibody, V domains shown, also called hSG16.17 23) VH: QVQLVQSRAEVKKPGASVKLSCKASGYTFTDYYMHWVRQAPGQGLEWIGIINPNSGYTSYAQKFQGRVTMTADKSTNTAYVELSSLRSEDTAVYFCTRYMWERVTGFFDFWGQGTMVTVSS VL: DIQMTQSPSSVSASVGDRVTITCLASEDISDDLAWYQQKPGKAPKVLVYTTSRLQSGVPSRFSGSGSGTDFTLTISSMQPEDFADYFCQQTYKFPPTFGGGTKVEIKR	binds
hSG16.17 vH5 vK5 (antibody, V domains shown, also called hSG16.17 20) VH: QVQLVQSGAEVKKPGASVKVSCKASGYTFTDYYIHWVRQAPGQGLEWIGYINPNSGYTKYNENFKTRATMTADKSTNTAYVELSSLRSEDTAVYFCTRYMWERVTGFFDFWGQGTMVTVSS VL: DIQMTQSPSSVSASVGDRVTITCRASEDISDDLAWYQQKSGKAPKVLVYTTSSLQSGVPSRFSGSGSGTDFTLTISSLQPEDFATYFCQQTYKFPPTFGGGTKVEIKR	binds
hSG16.17 vH3 vK4 (antibody, V domains shown, also called hSG16.17 11) VH: QVQLVQSGAEVKKPGASVKLSCKASGYTFTDYYIHWVRQAPGQGLEWIGYINPNSGYTNYAQKFQGRATMTADKSINTAYVELSRLRSDDTAVYFCTRYMWERVTGFFDFWGQGTMVTVSS VL: DIQMTQSPSSVSASVGDRVTITCLASEDISDDLAWYQQKPGKAPKVLVYTTSRLQSGVPSRFSGSGSGTDFTLTISSMQPEDFADYFCQQTYKFPPTFGGGTKVEIKR	binds
hSG16.17 vH6 vK5 (antibody, V domains shown, also called hSG16.17 24) VH: QVQLVQSRAEVKKPGASVKLSCKASGYTFTDYYMHWVRQAPGQGLEWIGIINPNSGYTSYAQKFQGRVTMTADKSTNTAYVELSSLRSEDTAVYFCTRYMWERVTGFFDFWGQGTMVTVSS VL: DIQMTQSPSSVSASVGDRVTITCRASEDISDDLAWYQQKSGKAPKVLVYTTSSLQSGVPSRFSGSGSGTDFTLTISSLQPEDFATYFCQQTYKFPPTFGGGTKVEIKR	binds
hSG16.17 vH5 vK2 (antibody, V domains shown, also called hSG16.17 17) VH: QVQLVQSGAEVKKPGASVKVSCKASGYTFTDYYIHWVRQAPGQGLEWIGYINPNSGYTKYNENFKTRATMTADKSTNTAYVELSSLRSEDTAVYFCTRYMWERVTGFFDFWGQGTMVTVSS VL: DIQMTQSPSSVSASVGDRVTITCLASEDISDDLAWYQQKPGKAPKVLVYTTSSLQSGVPSRFSGSGSGTDFTLTISSLQPEDFATYFCQQTYKFPPTFGGGTKVEIKR	binds
hSG16.17 vH1 vK5 (antibody, V domains shown, also called hSG16.17 4) VH: QVQLVQSRAEVKKPGASVKLSCKASGYTFTDYYIHWVRQAPGQGLEWIGYINPNSGYTKYNENFKTRATMTADKSINTAYVELSRLRSDDTAVYFCTRYMWERVTGFFDFWGQGTMVTVSS VL: DIQMTQSPSSVSASVGDRVTITCRASEDISDDLAWYQQKSGKAPKVLVYTTSSLQSGVPSRFSGSGSGTDFTLTISSLQPEDFATYFCQQTYKFPPTFGGGTKVEIKR	binds
hSG16.17 vH6 vK3 (antibody, V domains shown, also called hSG16.17 22) VH: QVQLVQSRAEVKKPGASVKLSCKASGYTFTDYYMHWVRQAPGQGLEWIGIINPNSGYTSYAQKFQGRVTMTADKSTNTAYVELSSLRSEDTAVYFCTRYMWERVTGFFDFWGQGTMVTVSS VL: DIQMTQSPSSVSASVGDRVTITCRASEDISDDLAWYQQKPGKAPKVLVYTTSSLQSGVPSRFSGSGSGTDFTLTISSLQPEDFATYFCQQTYKFPPTFGGGTKVEIKR	binds
hSG16.17 vH3 vK5 (antibody, V domains shown, also called hSG16.17 12) VH: QVQLVQSGAEVKKPGASVKLSCKASGYTFTDYYIHWVRQAPGQGLEWIGYINPNSGYTNYAQKFQGRATMTADKSINTAYVELSRLRSDDTAVYFCTRYMWERVTGFFDFWGQGTMVTVSS VL: DIQMTQSPSSVSASVGDRVTITCRASEDISDDLAWYQQKSGKAPKVLVYTTSSLQSGVPSRFSGSGSGTDFTLTISSLQPEDFATYFCQQTYKFPPTFGGGTKVEIKR	binds
hSG16.17 vH5 vK3 (antibody, V domains shown, also called hSG16.17 18) VH: QVQLVQSGAEVKKPGASVKVSCKASGYTFTDYYIHWVRQAPGQGLEWIGYINPNSGYTKYNENFKTRATMTADKSTNTAYVELSSLRSEDTAVYFCTRYMWERVTGFFDFWGQGTMVTVSS VL: DIQMTQSPSSVSASVGDRVTITCRASEDISDDLAWYQQKPGKAPKVLVYTTSSLQSGVPSRFSGSGSGTDFTLTISSLQPEDFATYFCQQTYKFPPTFGGGTKVEIKR	binds
hSG16.17 vH1 vK4 (antibody, V domains shown, also called hSG16.17 3) VH: QVQLVQSRAEVKKPGASVKLSCKASGYTFTDYYIHWVRQAPGQGLEWIGYINPNSGYTKYNENFKTRATMTADKSINTAYVELSRLRSDDTAVYFCTRYMWERVTGFFDFWGQGTMVTVSS VL: DIQMTQSPSSVSASVGDRVTITCLASEDISDDLAWYQQKPGKAPKVLVYTTSRLQSGVPSRFSGSGSGTDFTLTISSMQPEDFADYFCQQTYKFPPTFGGGTKVEIKR	binds
hSG16.17 vH6 vK2 (antibody, V domains shown, also called hSG16.17 21) VH: QVQLVQSRAEVKKPGASVKLSCKASGYTFTDYYMHWVRQAPGQGLEWIGIINPNSGYTSYAQKFQGRVTMTADKSTNTAYVELSSLRSEDTAVYFCTRYMWERVTGFFDFWGQGTMVTVSS VL: DIQMTQSPSSVSASVGDRVTITCLASEDISDDLAWYQQKPGKAPKVLVYTTSSLQSGVPSRFSGSGSGTDFTLTISSLQPEDFATYFCQQTYKFPPTFGGGTKVEIKR	binds

These binders were tested against T1, human BCMA (B-cell maturation antigen, …) (assay: cell binding, U266 cells, full range of concentration points).

Binder	binding result
hSG16.17 vH2 vK2 (antibody, V domains shown, also called hSG16.17 5) VH: QVQLVQSGAEVKKPGASVKLSCKASGYTFTDYYMHWVRQAPGQGLEWIGRINPNSGYTNYAQKFQGRVTMTADKSINTAYVELSRLRSDDTAVYFCTRYMWERVTGFFDFWGQGTMVTVSS VL: DIQMTQSPSSVSASVGDRVTITCLASEDISDDLAWYQQKPGKAPKVLVYTTSSLQSGVPSRFSGSGSGTDFTLTISSLQPEDFATYFCQQTYKFPPTFGGGTKVEIKR	binds
hSG16.17 vH2 vK5 (antibody, V domains shown, also called hSG16.17 8) VH: QVQLVQSGAEVKKPGASVKLSCKASGYTFTDYYMHWVRQAPGQGLEWIGRINPNSGYTNYAQKFQGRVTMTADKSINTAYVELSRLRSDDTAVYFCTRYMWERVTGFFDFWGQGTMVTVSS VL: DIQMTQSPSSVSASVGDRVTITCRASEDISDDLAWYQQKSGKAPKVLVYTTSSLQSGVPSRFSGSGSGTDFTLTISSLQPEDFATYFCQQTYKFPPTFGGGTKVEIKR	binds
hSG16.17 vH2 vK3 (antibody, V domains shown, also called hSG16.17 6) VH: QVQLVQSGAEVKKPGASVKLSCKASGYTFTDYYMHWVRQAPGQGLEWIGRINPNSGYTNYAQKFQGRVTMTADKSINTAYVELSRLRSDDTAVYFCTRYMWERVTGFFDFWGQGTMVTVSS VL: DIQMTQSPSSVSASVGDRVTITCRASEDISDDLAWYQQKPGKAPKVLVYTTSSLQSGVPSRFSGSGSGTDFTLTISSLQPEDFATYFCQQTYKFPPTFGGGTKVEIKR	binds
hSG16.17 vH2 vK4 (antibody, V domains shown, also called hSG16.17 7) VH: QVQLVQSGAEVKKPGASVKLSCKASGYTFTDYYMHWVRQAPGQGLEWIGRINPNSGYTNYAQKFQGRVTMTADKSINTAYVELSRLRSDDTAVYFCTRYMWERVTGFFDFWGQGTMVTVSS VL: DIQMTQSPSSVSASVGDRVTITCLASEDISDDLAWYQQKPGKAPKVLVYTTSRLQSGVPSRFSGSGSGTDFTLTISSMQPEDFADYFCQQTYKFPPTFGGGTKVEIKR	binds
